Measurements as given in PMC4490410.

Columns and labels:
Settings in all cases: remark: other sources report otherwise
[1] = target: T1, DJ-1 (endogenous, human) (human (endogenous in human brain, M17D cells, iPSC-derived neurons)), Q99497; test: cross-linking; intact neurons differentiated from A53T patient iPSCs or the corrected isogenic line; DSG; sequential extraction, cytosol blotted with 2F12, C20, Syn1
T1 chain: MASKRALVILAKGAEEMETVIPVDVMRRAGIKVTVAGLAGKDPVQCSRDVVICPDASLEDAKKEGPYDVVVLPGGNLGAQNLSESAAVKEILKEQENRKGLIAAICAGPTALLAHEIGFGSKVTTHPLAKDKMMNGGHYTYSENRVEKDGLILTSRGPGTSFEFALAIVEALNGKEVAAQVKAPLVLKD

[2] = target: T1, DJ-1 (endogenous, human) (human …); test: cross-linking; intact M17D cells transiently transfected with untagged αS variants; 1 mM DSG or 1.75 mM DSP, 30 min 37 °C; cytosol (PBS) or PBS/1% TX-100 lysate, western blot (Syn1) densitometry; values of the fPD mutants from a meta-analysis of DSG and DSP experiments
[3] = target: T1, DJ-1 (endogenous, human) (human …); test: cross-linking; intact-cell crosslinking of minced, washed fresh human cortical biopsy; 1 mM DSG at increasing volume-to-protein ratio (DSP reduced by βME for total αS), 37 °C 30 min; then PBS ('cytosol') and TX-100 ('membrane') fractions, western blot

Measured: stoichiometry N

B1: DJ-1 (endogenous, human), Q99497 1-189 (natural protein)
chain: MASKRALVILAKGAEEMETVIPVDVMRRAGIKVTVAGLAGKDPVQCSRDVVICPDASLEDAKKEGPYDVVVLPGGNLGAQNLSESAAVKEILKEQENRKGLIAAICAGPTALLAHEIGFGSKVTTHPLAKDKMMNGGHYTYSENRVEKDGLILTSRGPGTSFEFALAIVEALNGKEVAAQVKAPLVLKD
2: all assays above
